# In patent publication US20180194830A1 (COMMISSARIAT A L ENERGIE ATOMIQUE ET AUX ENERGIES …, published 2018):
# Target: T1, ILT4-Fc (recombinant ILT4 receptor fused to the Fc part of a human IgG, R&D Biosystems) (human, UniProt Q8N423 22-458)
# T1 construct: Bought reagent (R&D); also called ILT4/LILRB2/CD85d; not shown: Fc part of a human IgG
# Assay: dimer covalently coated on Bio-Plex beads, ILT4-Fc at 2 µg/ml, PE anti-human IgG, flow cytometry
# Method: To test the binding to HLA-G receptors ILT2, ILT4, and KIR2DL4, 12 μg of dimers obtained according to example 2 were covalently coated on Bio-Plex-COOH polystyrene beads (Bio-Rad) according to the manufacturer's recommendations. Beads were then resuspended at a concentration of 2000 beads per 50 μl in 1× Luminex assay buffer (Interchim). Recombinant receptors fused to the Fc part of a human IgG (ILT2-Fc, ILT4-Fc, R&D Biosystems) were then added at 2 μg/ml. Beads and receptors were then incubated for 90 minutes in the dark on a shaker before wash twice with 200 μl of 1×PBS, 0.05% Tween. Beads were then resuspended in 50 μl of PBS Luminex assay Buffer containing 2 μl g/ml of Phycoerythrin-conjugated Goat anti Human IgG antibody (Sigma) for 30 minutes in the dark on a rotating shaker. Beads were then washed twice with 200 μl of 1×PBS, 0.05% Tween, and resuspended in 300 μl of 1×PBS.
# Fluorescence, indicative of peptide recognition by the receptors was evaluated by flow cytometry performed on an Epics XL Cytometer (Beckman Coulter) using EXPO32 software (Beckman Coulter).
# T1 sequence (Q8N423 22-458 limits assumed): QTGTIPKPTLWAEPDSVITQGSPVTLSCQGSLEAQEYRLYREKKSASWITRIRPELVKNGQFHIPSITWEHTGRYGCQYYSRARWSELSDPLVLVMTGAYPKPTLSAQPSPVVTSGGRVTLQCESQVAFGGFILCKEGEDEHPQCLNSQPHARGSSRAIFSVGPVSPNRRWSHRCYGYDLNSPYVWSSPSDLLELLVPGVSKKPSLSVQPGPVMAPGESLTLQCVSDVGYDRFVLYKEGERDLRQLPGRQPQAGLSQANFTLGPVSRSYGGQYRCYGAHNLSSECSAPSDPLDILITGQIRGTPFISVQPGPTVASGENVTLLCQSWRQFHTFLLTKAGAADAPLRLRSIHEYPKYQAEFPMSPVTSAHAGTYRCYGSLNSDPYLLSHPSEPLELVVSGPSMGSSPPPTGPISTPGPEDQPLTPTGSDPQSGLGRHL
binder,measurement,value
"(alpha1-alpha 3)×2 dimer of SEQ ID NO:4 (intrachain disulfide between cysteines 111 and 167; interchain disulfide bridge between Cysteine 42 of the two monomers, Synthetic disulfide-linked homodimer; in the assay covalently coated on Bio-Plex-COOH polystyrene beads; also called (alpha 3-alpha1)×2; (alpha1-alpha 3)x2) GSHSMRYFSAAVSRPGRGEPRFIAMGYVDDTQFVRFDSDSACPRMEPRAPWVEQEGPEYWEEETRNTKAHAQTDRMNLQTLRGYYNQSEADPPKTHVTHHPVFDYEATLRCWALGFYPAEIILTWQRDGEDQTQDVELVETRPAGDGTFQKWAAVVVPSGEEQRYTCHVQHEGLPEPLMLRWKQ",binding result,binds
